Target: wild-type monomeric SARS-CoV-2 S receptor-binding domain (RBD) (SARS-CoV-2 (Wuhan-Hu-1), UniProt P0DTC2)
Test: BLI

B1: CV30 IgG (antibody, V domains shown)
VH: QVQLVESGGGLIQPGGSLRLSCAASGVIVSSNYMSWVRQAPGKGLEWVSVIYSGGSTYYADSVKGRFTISRDNSKNTLYLQMNSLRAEDTAVYYCARDLDVSGGMDVWGQGTTVTVSS
VL: not shown
  Kd: 8.8 nM
